Tests used:
Details in all cases: 100 mM Tris-HCl pH 7, 15 mM MgCl2, 37 °C
[1] = substrate: O=[N+]([O-])c1ccc(OP(=O)(O)O)cc1; test: purified protein
[2] = substrate: O=P(O)(O)O[C@H]1O[C@H](CO)[C@H](O)[C@H](O)[C@H]1O; test: purified protein
[3] = substrate: O=C(CO)[C@@H](O)[C@H](O)COP(=O)(O)O; test: purified protein
[4] = substrate: O=P(O)(O)OC[C@H]1OC(O)[C@H](O)[C@@H](O)[C@@H]1O; test: steady-state kinetics; type: biochemical, Bacillus subtilis

B1: AraL (recombinant AraL-His6, pLG11) (Bacillus subtilis subsp. subtilis str. 168; V11M) (protein)
chain: MSPAGILIDLDGTVFRGNELIEGAREAIKTLRRMGKKIVFLSNRGNISRAMCRKKLLGAGIETDVNDIVLSSSVTAAFLKKHYRFSKVWVLGEQGLVDELRLAGVQNASEPKEADWLVISLHETLTYDDLNQAFQAAAGGARIIATNKDRSFPNEDGNAIDVAGMIGAIETSAQAKTELVVGKPSWLMAEAACTAMGLSAHECMIIGDSIESDIAMGKLYGMKSALVLTGSAKQGEQRLYTPDYVLDSIKDVTKLAEEGILI
Work on B1 yielded a Km [1] of 50.00 ± 23.32 mM, a kcat [1] of 0.012 ± 0.0006 s⁻¹ and a kcat/Km [1] of 0.24 M⁻¹ s⁻¹. The Km [2] was 40.74 ± 6.03 mM, the kcat [2] was 4.28 ± 0.4 s⁻¹ and the kcat/Km [2] was 102 M⁻¹ s⁻¹. For the same protein, the Km [3] was 29.14 ± 4.87 mM, the kcat [3] was 2.75 ± 0.26 s⁻¹ and the kcat/Km [3] was 94.3 M⁻¹ s⁻¹. The Km [4] was 24.96 ± 4.08 mM, the kcat [4] was 2.49 ± 0.26 s⁻¹ and the kcat/Km [4] was 99.8 M⁻¹ s⁻¹.

Reference: publication PMC3207120
